Reference: article PMC5053164

B1: DORN1 extracellular domain (atDORN1-ECD; LecRK-I.9): N124N225D (protein)
parent chain: MARWLLQILIISSLHLSSVSSQQETSFVYESFLDRQNLYLDKSAIVLPSGLLQLTNASEHQMGHAFHKKPIEFSSSGPLSFSTHFVCALVPKPGFEGGHGIVFVLSPSMDFTHAESTRYLGIFNASTNGSSSYHVLAVELDTIWNPDFKDIDHNHVGIDVNSPISVAIASASYYSDMKGSNESINLLSGNPIQVWVDYEGTLLNVSVAPLEVQKPTRPLLSHPINLTELFPNRSSLFAGFSAATGTAISDQYILWWSFSIDRGSLQRLDISKLPEVPHPRAPHKKVSTLIILLPVCLAILVLAVLAGLYFRRRRKYSEVSETWEKEFDAHRFSYRSLFKATKGFSKDEFLGKGGFGEVYRGNLPQGREIAVKRVSHNGDEGVKQFVAEVVSMRCLKHRNLVPLFGYCRRKRELLLVSEYMPNGSLDEHLFDDQKPVLSWSQRLVVVKGIASALWYLHTGADQVVLHRDVKASNIMLDAEFHGRLGDFGMARFHEHGGNAATTAAVGTVGYMAPELITMGASTGTDVYAFGVFMLEVTCGRRPVEPQLQVEKRHMIKWVCECWKKDSLLDATDPRLGGKFVAEEVEMVMKLGLLCSNIVPESRPTMEQVVLYLNKNLPLPDFSPYTLGIGTFAPVLVDASSLVVSSASWSLSGPSMSSSSPNHSPYAWQSTDQPWGQTIDTKNSLHIVAEPEKPSPAVKMVTLPAEDPQSNHSSISSQRVQPVKREKRRLHQILVAFPWINKQYFKLGLPKHIVHVSLFFFLQLARL
B2: DORN1 extracellular domain (atDORN1-ECD; LecRK-I.9): N128N204D (protein)
parent chain: B1 parent chain
B3: DORN1 extracellular domain (atDORN1-ECD; LecRK-I.9): N204N225D (protein)
parent chain: B1 parent chain
B4: DORN1 extracellular domain (atDORN1-ECD; LecRK-I.9): N124N128N204D (protein)
parent chain: B1 parent chain
B5: DORN1 extracellular domain (atDORN1-ECD; LecRK-I.9): N124N128N225D (protein)
parent chain: B1 parent chain
B6: DORN1 extracellular domain (atDORN1-ECD; LecRK-I.9): N124N204N225D (protein)
parent chain: B1 parent chain
B7: DORN1 extracellular domain (atDORN1-ECD; LecRK-I.9): N128N204N225D (protein)
parent chain: B1 parent chain
B8: DORN1 extracellular domain (atDORN1-ECD; LecRK-I.9): N124N128N204N225D (protein)
parent chain: B1 parent chain
B9: DORN1 extracellular domain (atDORN1-ECD; LecRK-I.9): N124N128D (protein)
parent chain: B1 parent chain
B10: DORN1 extracellular domain (atDORN1-ECD; LecRK-I.9): N124N204D (protein)
parent chain: B1 parent chain
B11: DORN1 extracellular domain (atDORN1-ECD; LecRK-I.9): N124D (protein)
parent chain: B1 parent chain
B12: DORN1 extracellular domain (atDORN1-ECD; LecRK-I.9): N128D (protein)
parent chain: B1 parent chain
B13: DORN1 extracellular domain (atDORN1-ECD; LecRK-I.9): N204D (protein)
parent chain: B1 parent chain
B14: DORN1 extracellular domain (atDORN1-ECD; LecRK-I.9): N225D (protein)
parent chain: B1 parent chain
B15: DORN1 extracellular domain (atDORN1-ECD; LecRK-I.9): PNGase F (protein)
parent chain: B1 parent chain
B16: DORN1 extracellular domain (atDORN1-ECD; LecRK-I.9): Endo H (protein)
parent chain: B1 parent chain

Assay: expression yield of multisite mutants
Details: glycan lost; control: wild type

Protein	expression_or_secretion, percent_of_wt
B1	decreases
B2	decreases
B3	decreases
B4	decreases
B5	decreases
B6	decreases
B7	decreases
B8	decreases
B9	decreases
B10	decreases

Assay: yield of purified secreted protein, SDS-PAGE
Details: glycan lost; control: wild type

Protein	expression_or_secretion
B11	no change
B12	no change
B13	no change
B14	no change

Assay: aggregation after overnight glycosidase digestion
Details: glycan lost; control: untreated

Protein	stability_or_folding
B15	decreases
B16	decreases
